The values that follow come from patent US20260234255A1 (Genmab, published 2026).

Assay [1] has as its target T1, human CD30 (human, UniProt P28908 19-595).
T1 sequence: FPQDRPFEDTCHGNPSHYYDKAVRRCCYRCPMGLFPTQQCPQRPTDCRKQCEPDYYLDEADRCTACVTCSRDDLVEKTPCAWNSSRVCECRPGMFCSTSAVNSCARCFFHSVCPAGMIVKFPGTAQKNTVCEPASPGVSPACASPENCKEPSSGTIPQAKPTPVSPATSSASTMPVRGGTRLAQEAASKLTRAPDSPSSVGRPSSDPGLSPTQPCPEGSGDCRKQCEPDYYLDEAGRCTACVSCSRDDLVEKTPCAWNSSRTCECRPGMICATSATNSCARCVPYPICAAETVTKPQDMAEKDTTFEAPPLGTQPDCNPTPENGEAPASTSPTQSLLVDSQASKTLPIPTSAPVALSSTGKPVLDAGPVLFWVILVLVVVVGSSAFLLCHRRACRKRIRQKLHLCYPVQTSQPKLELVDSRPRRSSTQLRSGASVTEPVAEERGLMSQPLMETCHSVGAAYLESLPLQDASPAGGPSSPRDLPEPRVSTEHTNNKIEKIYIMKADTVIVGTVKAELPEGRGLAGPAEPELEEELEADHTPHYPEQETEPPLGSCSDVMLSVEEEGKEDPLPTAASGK
The experiment in a line: cell-based or functional assay.

Assay [2] concerns the target T1, human CD30. Put plainly: flow cytometry, L-428 cells, experiment N = 1.
For assay [3], the target named is T1, human CD30. Put plainly: flow cytometry, HDLM-2 cells, experiment N = 1. On the technique in general: A flow cytometer gives signals particle by particle.
Assay [4] deals with T1, human CD30. Put plainly: flow cytometry, L-428 cells, experiment N = 2.
Assay [5] concerns the target T1, human CD30. The experiment in a line: flow cytometry, SU-DHL-1 cells. Summed up: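 CD3×CD30 bispecific antibodies, 3-fold serial dilutions from 0.0046 to 10 μg/mL, incubated with 3×10⁴ SU-DHL-1 (ALCL) or HDLM-2 (HL) cells for 30 min at 4 °C, then secondary antibody 30 min at 4 °C. Live cells gated by FSC/SSC and TO-PRO-3 exclusion; binding curves fitted by four-parameter sigmoidal regression.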

In assay [6] the target is T1, human CD30. Put plainly: flow cytometry, Expi293F cells transfected with human CD30. The protocol:
Cells (3×10⁴ cells/well) were incubated in polystyrene 96-well round-bottom plates (Greiner bio-one, cat. no. 650180) with serial dilutions of antibodies (ranging from 0.005 to 10 μg/mL in 3-fold dilution steps) in 100 μL staining buffer at 4° C. for 30 min. Experiments were performed in technical duplicate. After washing twice in staining buffer, cells were incubated in 50 μL secondary antibody at 4° C. for 30 min. As a secondary antibody, R-PE-conjugated goat-anti-human IgG (Jackson ImmunoResearch, UK; cat. no. 109⁻¹¹⁶-098) diluted 1:400 in staining buffer was used. Cells were washed twice in staining buffer, resuspended in 30 μL staining buffer containing 0.4% EDTA and analyzed on an iQue Screener (Intellicyt Corporation, USA). Binding curves were analyzed using non-linear regression (sigmoidal dose-response with variable slope) using GraphPad Prism V9.0.0 software (GraphPad Software, San Diego, CA, USA).

The target of assay [7] is T1, human CD30. Put plainly: flow cytometry, JVM-2 cells (MCL), range of 3 tests. As for the experimental part:
(§1) Cells (3×10⁴ cells/well) were incubated in polystyrene 96-well round-bottom plates (Greiner bio-one, cat. no. 650180) with serial dilutions of antibodies (range 0.0046 to 10 μg/mL in 3-fold dilution steps) in 50 μL staining buffer at 4° C. for 30 min. After washing twice in staining buffer, cells were incubated with 50 μL secondary antibody at 4° C. for 30 min. […] Next, cells were washed twice in staining buffer, resuspended in 100 μL staining buffer supplemented with TO-PRO-3 iodide (Thermo Fisher Scientific; cat. no. T3605; 1:8000 dilution) and analyzed on a FACSCelesta flow cytometer (BD Biosciences, USA). Live cells were gated based on FSC/SSC and absence of TOPRO-3 staining. Binding curves were analyzed by non-linear regression of log-transformed data (sigmoidal dose-response with variable slope, four parameters) using GraphPad Prism V7.02 software (GraphPad Software, San Diego, CA, USA).

The target of assay [8] is T1, human CD30. Put plainly: flow cytometry, KM-H2 cells (HL), range of 3 tests. As for the experimental part:
as §1

Assay [9] addresses T1, human CD30. Put plainly: flow cytometry, SUP-M2 cells (ALCL), range of 3 tests. The protocol:
as §1

Assay [10] deals with T1, human CD30. The experiment in a line: flow cytometry, L-1236 cells (HL), range of 3 tests. The protocol:
as §1

Assay [11] deals with T1, human CD30. The experiment in a line: flow cytometry, DEL cells (ALCL), average of 3 tests. As for the experimental part: as §1
Assay [12] has as its target T1, human CD30. The experiment in a line: flow cytometry, DEL cells (ALCL), range of 3 tests. The protocol: as §1
Assay [13] deals with T1, human CD30. The experiment in a line: flow cytometry, KI-JK cells (ALCL), average of 3 tests. The protocol: as §1
The target of assay [14] is T1, human CD30. Put plainly: flow cytometry, L-540 cells (HL), average of 3 tests. As for the experimental part: as §1
In assay [15] the target is T1, human CD30. Put plainly: flow cytometry, L-428 cells (HL), average of 2 tests. As for the experimental part: as §1
In assay [16] the target is T1, human CD30. The experiment in a line: flow cytometry, HDLM-2 cells (HL), average of 3 tests. As for the experimental part: as §1

B1: bsG1-huCD3-FEALxCD30-MDX060-FEAR (bispecific antibody, human IgG1, kappa, lambda)
heavy 1: not shown
light 1: not shown
heavy 2: QVQLQQWGAGLLKPSETLSLTCAVYGGSFSAYYWSWIRQPPGKGLEWIGDINHGGGTNYNPSLKSRVTISVDTSKNQFSLKLNSVTAADTAVYYCASLTAYWGQGSLVTVSSASTKGPSVFPLAPSSKSTSGGTAALGCLVKDYFPEPVTVSWNSGALTSGVHTFPAVLQSSGLYSLSSVVTVPSSSLGTQTYICNVNHKPSNTKVDKRVEPKSCDKTHTCPPCPAPEFEGGPSVFLFPPKPKDTLMISRTPEVTCVVVAVSHEDPEVKFNWYVDGVEVHNAKTKPREEQYNSTYRVVSVLTVLHQDWLNGKEYKCKVSNKALPAPIEKTISKAKGQPREPQVYTLPPSREEMTKNQVSLTCLVKGFYPSDIAVEWESNGQPENNYKTTPPVLDSDGSFFLYSRLTVDKSRWQQGNVFSCSVMHEALHNHYTQKSLSLSPG
light 2: DIQMTQSPTSLSASVGDRVTITCRASQGISSWLTWYQQKPEKAPKSLIYAASSLQSGVPSRFSGSGSGTDFTLTISSLQPEDFATYYCQQYDSYPITFGQGTRLEIKRTVAAPSVFIFPPSDEQLKSGTASVVCLLNNFYPREAKVQWKVDNALQSGNSQESVTEQDSKDSTYSLSSTLTLSKADYEKHKVYACEVTHQGLSSPVTKSFNRGEC
notes: also called bsG1-huCD3xCD30-MDX060
As to B1, in the assay with human CD30 [1], the “T-cell mediated cytotoxicity of Karpas-299 cells, IC50 average” value is 0.033 µg/mL. Also, the “T-cell mediated cytotoxicity of Karpas-299 cells, maximum lysis average” value with human CD30 [1] turned out to be 53.7%. The EC50 (as a rule, the concentration giving half of the maximal effect) with human CD30 [2] turned out to be 0.154 µg/mL; with human CD30 [3] it was 0.145 µg/mL; with human CD30 [4] it was 0.0705 µg/mL. In addition, the results for the 50% effective concentration (EC50 (read off the curve)) with human CD30 [5] and with human CD30 [6] were about 0.4 µg/mL and about 0.09 µg/mL, respectively.

B2: bsG1-huCD3-FEALxCD30-MDX060-FERR (bispecific antibody, human IgG1, kappa, lambda)
heavy 1: not shown
light 1: not shown
heavy 2: QVQLQQWGAGLLKPSETLSLTCAVYGGSFSAYYWSWIRQPPGKGLEWIGDINHGGGTNYNPSLKSRVTISVDTSKNQFSLKLNSVTAADTAVYYCASLTAYWGQGSLVTVSSASTKGPSVFPLAPSSKSTSGGTAALGCLVKDYFPEPVTVSWNSGALTSGVHTFPAVLQSSGLYSLSSVVTVPSSSLGTQTYICNVNHKPSNTKVDKRVEPKSCDKTHTCPPCPAPEFERGPSVFLFPPKPKDTLMISRTPEVTCVVVDVSHEDPEVKFNWYVDGVEVHNAKTKPREEQYNSTYRVVSVLTVLHQDWLNGKEYKCKVSNKALPAPIEKTISKAKGQPREPQVYTLPPSREEMTKNQVSLTCLVKGFYPSDIAVEWESNGQPENNYKTTPPVLDSDGSFFLYSRLTVDKSRWQQGNVFSCSVMHEALHNHYTQKSLSLSPG
light 2: DIQMTQSPTSLSASVGDRVTITCRASQGISSWLTWYQQKPEKAPKSLIYAASSLQSGVPSRFSGSGSGTDFTLTISSLQPEDFATYYCQQYDSYPITFGQGTRLEIKRTVAAPSVFIFPPSDEQLKSGTASVVCLLNNFYPREAKVQWKVDNALQSGNSQESVTEQDSKDSTYSLSSTLTLSKADYEKHKVYACEVTHQGLSSPVTKSFNRGEC
notes: Bispecific IgG1 made by controlled Fab-arm exchange; also called bsIgG1-huCD3-FEALxCD30-MDX060-FERR; bsG1-huCD3×CD30-MDX060
Consider B2, for which the EC50 was 0.107 to 0.141 µg/mL with human CD30 [7]; 0.141 to 0.182 µg/mL with human CD30 [8]; 0.134 to 0.223 µg/mL with human CD30 [9]; 0.163 to 0.225 µg/mL in the assay with human CD30 [10]; 0.201 µg/mL with human CD30 [11]; 0.143 to 0.267 µg/mL in the assay with human CD30 [12]. Moreover, the concentration for a half-maximal effect (EC50) with human CD30 [13] is 0.191 µg/mL; in the assay with human CD30 [14], 0.323 µg/mL; with human CD30 [15], 0.174 µg/mL; with human CD30 [16], 0.167 µg/mL. In addition, the “T-cell mediated cytotoxicity of Karpas-299 cells, IC50 average” value with human CD30 [1] came to 0.029 µg/mL. Further, the “T-cell mediated cytotoxicity of Karpas-299 cells, maximum lysis average” value with human CD30 [1] amounted to 52.3%.
